The text below walks through data of article PMC11472053, “Structural basis of DNA recognition by BEN domain proteins reveals a role for oligomerization in unmethylated DNA selection by BANP” (Nucleic Acids Research, 2024).

One data set has as its target T1, BANP DBD (human, UniProt Q8N9N5 361-519).
T1 sequence: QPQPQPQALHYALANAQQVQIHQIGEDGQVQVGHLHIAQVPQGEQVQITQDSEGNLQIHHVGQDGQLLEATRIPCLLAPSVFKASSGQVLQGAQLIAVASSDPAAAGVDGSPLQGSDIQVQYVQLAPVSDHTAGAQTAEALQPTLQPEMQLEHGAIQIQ
Nature of the data set: EMSA; ITC: 20 mM Tris pH 7.5, 200 mM NaCl, 2 mM beta-mercaptoethanol, 20 C; EMSA: 20 mM Tris pH 7.0, 200 mM NaCl, 2 mM DTT, 4 C, 1.2% agarose in TAE. The conditions noted are these: protein: recombinant; tags: His-SUMO or His-MBP, cleaved; blunt, self-complementary. In general terms: A gel shift assay detects complexes by their altered migration in electrophoresis.

Another data set has as its target T2, BANP BEN K278A (human, UniProt Q8N9N5 205-325, K278A).
T2 sequence: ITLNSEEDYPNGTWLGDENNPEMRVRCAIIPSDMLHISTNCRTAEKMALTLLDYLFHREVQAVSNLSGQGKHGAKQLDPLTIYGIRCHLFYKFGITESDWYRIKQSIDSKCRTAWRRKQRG
Description: ITC; ITC: 20 mM Tris pH 7.5, 200 mM NaCl, 2 mM beta-mercaptoethanol, 20 C; EMSA: 20 mM Tris pH 7.0, 200 mM NaCl, 2 mM DTT, 4 C, 1.2% agarose in TAE. Particulars: protein: recombinant; tags: His-SUMO or His-MBP, cleaved; chain copies: 2; blunt, self-complementary. On the technique in general: Isothermal titration calorimetry measures the heat released or taken up as one component is titrated into another.

A further data set addresses T3, BANP BEN R316A (human, UniProt Q8N9N5 205-325, R316A).
T3 sequence: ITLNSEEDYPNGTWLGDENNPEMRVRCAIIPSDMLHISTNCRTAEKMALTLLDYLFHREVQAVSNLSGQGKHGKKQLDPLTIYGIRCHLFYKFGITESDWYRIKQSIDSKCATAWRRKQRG
Described as above. Particulars: protein: recombinant; tags: His-SUMO or His-MBP, cleaved; chain copies: 2; blunt, self-complementary.

Another data set concerns the target T4, BANP full-length WT (human, UniProt Q8N9N5 1-519).
T4 sequence: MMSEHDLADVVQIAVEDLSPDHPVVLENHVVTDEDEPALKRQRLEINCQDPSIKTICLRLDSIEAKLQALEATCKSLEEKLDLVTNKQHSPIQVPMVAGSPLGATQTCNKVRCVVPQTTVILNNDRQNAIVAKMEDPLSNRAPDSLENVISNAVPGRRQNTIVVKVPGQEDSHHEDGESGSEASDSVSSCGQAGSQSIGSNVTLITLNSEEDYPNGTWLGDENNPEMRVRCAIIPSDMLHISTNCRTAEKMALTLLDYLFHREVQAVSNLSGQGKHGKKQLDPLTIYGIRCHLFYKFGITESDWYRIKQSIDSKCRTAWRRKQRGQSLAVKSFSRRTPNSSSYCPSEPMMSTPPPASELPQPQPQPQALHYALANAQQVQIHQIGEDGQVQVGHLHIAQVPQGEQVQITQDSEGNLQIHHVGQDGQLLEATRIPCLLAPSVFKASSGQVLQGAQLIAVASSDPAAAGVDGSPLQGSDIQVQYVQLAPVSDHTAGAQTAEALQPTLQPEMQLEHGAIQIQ
The data set is described as above. Particulars: protein: recombinant; tags: His-SUMO or His-MBP, cleaved; chain copies: 4; blunt, self-complementary.

The target in another data set is T5, BANP BEN WT (human, UniProt Q8N9N5 205-325).
T5 sequence: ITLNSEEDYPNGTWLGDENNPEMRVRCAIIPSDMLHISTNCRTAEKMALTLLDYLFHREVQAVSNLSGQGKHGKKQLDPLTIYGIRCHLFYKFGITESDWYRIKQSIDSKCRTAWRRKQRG
Nature of the data set: ITC; text gives 2.5 uM; ITC: 20 mM Tris pH 7.5, 200 mM NaCl, 2 mM beta-mercaptoethanol, 20 C; EMSA: 20 mM Tris pH 7.0, 200 mM NaCl, 2 mM DTT, 4 C, 1.2% agarose in TAE. Particulars: protein: recombinant; tags: His-SUMO or His-MBP, cleaved; chain copies: 2; blunt, self-complementary.

B1: 12-CGCG (dsDNA)
DNA 1: ATCTCGCGAGAT
DNA 2: ATCTCGCGAGAT
Take B1: in the data set with BANP DBD, the binding result is “no binding”. Also, the Kd came to 35.6 ± 4.1 µM with BANP BEN K278A, 16.8 ± 1.6 µM with BANP BEN R316A, 3.4 ± 0.6 µM with BANP full-length WT and 2600 ± 400 nM with BANP BEN WT.

One may read the Kd as the free concentration of one partner at which half of the binding sites on the other are occupied at equilibrium, for simple one-to-one binding.
